# Reference: patent US20220016130A1 (MAYO FOUNDATION FOR MEDICAL EDUCATION AND RESEARCH, published 2022)
# Experiments:
# NCOR2 = NCOR2 (human, UniProt Q9Y618 1-2514, limits assumed); experiment: reciprocal co-IP of endogenous proteins in C4-2 cells
# Protocol: (§1) To immunoprecipitate the ectopically expressed FLAG-tagged proteins, transfected cells were lysed 24 hours post-transfection in BC100 buffer. The whole-cell lysates were immunoprecipitated with the monoclonal anti-FLAG antibody-conjugated M2 agarose beads (Sigma-Aldrich) at 4° C. overnight. After three washes with lysis buffer, followed by two washes with BC100 buffer, the bound proteins were eluted using FLAG-Peptide (Sigma-Aldrich) prepared in BC100 for 3 hours at 4° C. The eluted protein sample was resolved by SDS-PAGE. To immunoprecipitate the endogenous proteins, cells were lysed with 1× cell lysis buffer (Cell Signaling Technology), and the lysate was centrifuged. The supernatant was precleared with protein A/G beads (Sigma-Aldrich) and incubated with the indicated antibody and protein A/G beads at 4° C. overnight. Beads were washed five times with lysis buffer and resuspended in sample buffer and analyzed by SDS-PAGE.
# BRD2 = biological target: T1, BRD2 (human, UniProt P25440 1-801); experiment: co-IP of endogenous proteins in PC-3 cells
# T1 construct: One entry covers endogenous and FLAG-tagged full-length BRD2; also called FLAG-BRD2; Flag-BRD2
# T1 sequence (P25440 whole entry): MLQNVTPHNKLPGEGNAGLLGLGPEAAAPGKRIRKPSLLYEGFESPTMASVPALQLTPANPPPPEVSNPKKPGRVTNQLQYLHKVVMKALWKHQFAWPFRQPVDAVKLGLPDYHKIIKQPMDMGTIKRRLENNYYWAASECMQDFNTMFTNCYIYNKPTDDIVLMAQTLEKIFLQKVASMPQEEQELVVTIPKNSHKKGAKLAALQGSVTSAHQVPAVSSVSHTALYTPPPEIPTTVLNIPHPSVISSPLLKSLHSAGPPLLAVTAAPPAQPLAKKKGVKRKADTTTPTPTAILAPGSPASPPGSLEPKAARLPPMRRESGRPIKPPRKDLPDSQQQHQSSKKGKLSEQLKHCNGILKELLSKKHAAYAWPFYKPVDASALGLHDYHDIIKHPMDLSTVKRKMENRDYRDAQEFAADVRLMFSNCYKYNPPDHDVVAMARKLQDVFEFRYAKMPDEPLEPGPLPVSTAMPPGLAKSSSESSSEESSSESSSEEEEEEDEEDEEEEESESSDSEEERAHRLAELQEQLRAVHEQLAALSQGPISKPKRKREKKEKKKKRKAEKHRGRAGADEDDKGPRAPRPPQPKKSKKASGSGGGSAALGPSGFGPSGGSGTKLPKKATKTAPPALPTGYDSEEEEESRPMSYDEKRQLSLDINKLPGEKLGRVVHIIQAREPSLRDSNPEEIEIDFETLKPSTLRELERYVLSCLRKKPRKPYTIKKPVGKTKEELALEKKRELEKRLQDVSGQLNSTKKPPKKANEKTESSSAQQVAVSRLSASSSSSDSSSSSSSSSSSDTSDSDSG
# Protocol: as §1
# BRD3 = biological target: T2, BRD3 (human, UniProt Q15059 1-726); experiment: co-IP of endogenous proteins in PC-3 cells
# T2 construct: One entry covers endogenous and FLAG-tagged full-length BRD3; also called FLAG-BRD3; Flag-BRD3
# T2 sequence (Q15059 whole entry): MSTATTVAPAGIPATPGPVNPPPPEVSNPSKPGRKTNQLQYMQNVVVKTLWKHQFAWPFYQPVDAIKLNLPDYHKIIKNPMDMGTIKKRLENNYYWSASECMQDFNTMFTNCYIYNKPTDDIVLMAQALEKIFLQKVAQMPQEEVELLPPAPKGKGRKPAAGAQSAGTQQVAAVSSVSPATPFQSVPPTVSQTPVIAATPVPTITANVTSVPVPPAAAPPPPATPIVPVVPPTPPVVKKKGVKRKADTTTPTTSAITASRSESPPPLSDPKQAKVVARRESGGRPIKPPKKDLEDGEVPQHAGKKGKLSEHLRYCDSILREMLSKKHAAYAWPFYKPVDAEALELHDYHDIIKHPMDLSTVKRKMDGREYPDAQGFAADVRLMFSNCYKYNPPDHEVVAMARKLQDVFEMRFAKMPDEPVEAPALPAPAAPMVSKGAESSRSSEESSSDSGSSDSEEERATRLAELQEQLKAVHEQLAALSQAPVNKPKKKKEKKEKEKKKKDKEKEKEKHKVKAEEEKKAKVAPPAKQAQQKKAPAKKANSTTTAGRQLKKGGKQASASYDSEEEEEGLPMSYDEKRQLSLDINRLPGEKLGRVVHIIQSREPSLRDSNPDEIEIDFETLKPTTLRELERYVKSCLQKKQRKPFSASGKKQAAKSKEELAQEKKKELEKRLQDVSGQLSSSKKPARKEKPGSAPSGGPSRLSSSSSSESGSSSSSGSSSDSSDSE
# Protocol: as §1
# BRD4 [1] = biological target: T3, BRD4 (human, UniProt O60885 1-1362); experiment: co-IP from 293T cells transfected with Flag-tagged USPs (DUB3 and other DUBs) and HA-BRD4
# T3 construct: One entry covers endogenous, Flag-tagged and HA-tagged full-length BRD4; also called FLAG-BRD4; Flag-BRD4
# Protocol: as §1
# BRD4 [2] = biological target: T3, BRD4; experiment: co-IP from 293T cells transfected with Flag-tagged USPs and HA-BRD4
# Protocol: as §1
# BRD4 [3] = biological target: T3, BRD4; experiment: GST pull-down of Flag-BRD4 from PC-3 cells
# Chain of NCOR2 (Q9Y618 whole entry): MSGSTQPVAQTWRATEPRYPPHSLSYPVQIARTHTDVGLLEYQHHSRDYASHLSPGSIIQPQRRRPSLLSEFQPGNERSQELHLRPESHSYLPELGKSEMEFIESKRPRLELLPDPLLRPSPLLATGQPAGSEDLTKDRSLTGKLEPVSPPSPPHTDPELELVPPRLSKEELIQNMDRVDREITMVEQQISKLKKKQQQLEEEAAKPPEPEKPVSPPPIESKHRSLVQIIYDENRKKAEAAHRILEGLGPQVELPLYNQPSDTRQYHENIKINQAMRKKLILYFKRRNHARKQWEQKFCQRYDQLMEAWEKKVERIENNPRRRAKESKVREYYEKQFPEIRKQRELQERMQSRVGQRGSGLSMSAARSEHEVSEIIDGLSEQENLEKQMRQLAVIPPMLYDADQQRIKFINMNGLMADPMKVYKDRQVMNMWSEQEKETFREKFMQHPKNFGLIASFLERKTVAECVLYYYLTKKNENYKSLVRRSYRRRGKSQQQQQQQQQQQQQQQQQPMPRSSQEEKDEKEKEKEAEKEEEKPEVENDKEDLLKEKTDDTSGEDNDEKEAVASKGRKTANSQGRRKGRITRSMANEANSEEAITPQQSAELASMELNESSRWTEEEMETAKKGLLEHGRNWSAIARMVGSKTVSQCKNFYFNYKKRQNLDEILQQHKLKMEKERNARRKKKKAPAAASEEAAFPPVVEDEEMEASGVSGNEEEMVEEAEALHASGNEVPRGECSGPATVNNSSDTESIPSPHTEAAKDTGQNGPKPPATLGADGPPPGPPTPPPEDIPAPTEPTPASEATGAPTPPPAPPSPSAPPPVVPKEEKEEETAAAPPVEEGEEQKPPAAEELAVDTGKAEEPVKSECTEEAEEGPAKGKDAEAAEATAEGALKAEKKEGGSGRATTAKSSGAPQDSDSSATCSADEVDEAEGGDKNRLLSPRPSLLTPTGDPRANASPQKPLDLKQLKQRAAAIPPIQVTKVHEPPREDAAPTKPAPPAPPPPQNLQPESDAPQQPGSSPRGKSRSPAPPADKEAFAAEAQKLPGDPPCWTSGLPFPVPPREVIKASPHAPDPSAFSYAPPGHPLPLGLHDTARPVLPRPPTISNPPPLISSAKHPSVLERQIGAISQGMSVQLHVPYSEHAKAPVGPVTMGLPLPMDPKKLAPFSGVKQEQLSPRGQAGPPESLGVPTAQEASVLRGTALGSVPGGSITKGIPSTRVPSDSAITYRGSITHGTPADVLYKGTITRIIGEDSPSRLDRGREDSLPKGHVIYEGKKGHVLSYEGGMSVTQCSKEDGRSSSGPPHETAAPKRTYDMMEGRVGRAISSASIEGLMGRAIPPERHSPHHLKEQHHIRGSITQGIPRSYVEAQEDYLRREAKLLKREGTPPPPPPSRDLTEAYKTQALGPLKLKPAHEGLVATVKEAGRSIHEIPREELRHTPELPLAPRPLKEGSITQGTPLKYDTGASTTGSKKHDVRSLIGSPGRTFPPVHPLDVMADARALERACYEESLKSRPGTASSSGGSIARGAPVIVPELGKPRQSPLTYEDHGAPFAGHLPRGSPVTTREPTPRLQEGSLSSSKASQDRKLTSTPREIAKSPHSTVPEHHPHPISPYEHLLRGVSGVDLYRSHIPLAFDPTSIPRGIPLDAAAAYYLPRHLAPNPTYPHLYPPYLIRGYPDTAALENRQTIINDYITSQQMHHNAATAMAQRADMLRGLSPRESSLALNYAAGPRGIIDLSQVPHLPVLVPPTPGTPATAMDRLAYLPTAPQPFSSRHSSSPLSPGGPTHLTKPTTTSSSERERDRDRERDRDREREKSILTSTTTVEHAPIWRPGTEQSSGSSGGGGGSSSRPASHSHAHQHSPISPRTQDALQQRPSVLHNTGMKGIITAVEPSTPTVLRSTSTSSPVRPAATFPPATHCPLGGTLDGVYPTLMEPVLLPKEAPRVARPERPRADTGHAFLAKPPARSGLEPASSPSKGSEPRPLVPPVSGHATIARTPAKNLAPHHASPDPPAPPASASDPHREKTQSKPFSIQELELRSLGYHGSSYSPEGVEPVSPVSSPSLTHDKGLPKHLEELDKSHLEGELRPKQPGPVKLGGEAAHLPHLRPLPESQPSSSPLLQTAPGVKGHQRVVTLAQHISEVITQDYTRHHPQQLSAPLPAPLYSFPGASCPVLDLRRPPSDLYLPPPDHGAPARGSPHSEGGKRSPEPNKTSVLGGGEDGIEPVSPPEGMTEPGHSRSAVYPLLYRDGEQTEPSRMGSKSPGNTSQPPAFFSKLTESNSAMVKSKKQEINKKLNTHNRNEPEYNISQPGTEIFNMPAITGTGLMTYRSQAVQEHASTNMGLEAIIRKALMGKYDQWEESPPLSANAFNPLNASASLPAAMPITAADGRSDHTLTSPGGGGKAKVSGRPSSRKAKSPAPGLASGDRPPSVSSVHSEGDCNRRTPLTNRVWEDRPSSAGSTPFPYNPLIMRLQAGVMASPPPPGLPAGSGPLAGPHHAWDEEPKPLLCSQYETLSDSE
binder,measurement,setting,value
"HDAC10 (enzyme, human, UniProt Q969S8 1-669, looked up) MGTALVYHEDMTATRLLWDDPECEIERPERLTAALDRLRQRGLEQRCLRLSAREASEEELGLVHSPEYVSLVRETQVLGKEELQALSGQFDAIYFHPSTFHCARLAAGAGLQLVDAVLTGAVQNGLALVRPPGHHGQRAAANGFCVFNNVAIAAAHAKQKHGLHRILVVDWDVHHGQGIQYLFEDDPSVLYFSWHRYEHGRFWPFLRESDADAVGRGQGLGFTVNLPWNQVGMGNADYVAAFLHLLLPLAFEFDPELVLVSAGFDSAIGDPEGQMQATPECFAHLTQLLQVLAGGRVCAVLEGGYHLESLAESVCMTVQTLLGDPAPPLSGPMAPCQSALESIQSARAAQAPHWKSLQQQDVTAVPMSPSSHSPEGRPPPLLPGGPVCKAAASAPSSLLDQPCLCPAPSVRTAVALTTPDITLVLPPDVIQQEASALREETEAWARPHESLAREEALTALGKLLYLLDGMLDGQVNSGIAATPASAAAATLDVAVRRGLSHGAQRLLCVALGQLDRPPDLAHDGRSLWLNIRGKEAAALSMFHVSTPLPVMTGGFLSCILGLVLPLAYGFQPDLVLVALGPGHGLQGPHAALLAAMLRGLAGGRVLALLEENSTPQLAGILARVLNGEAPPSLGPSSVASPEDVQALMYLRGQLEPQWKMLQCHPHLVA",binding result,NCOR2,binds
"DUB3 (enzyme, human, UniProt Q6R6M4 1-530, looked up, One entry covers endogenous, HA-tagged and Flag-tagged full-length DUB3; also called USP17L2; USP17) MEDDSLYLGGEWQFNHFSKLTSSRPDAAFAEIQRTSLPEKSPLSSEARVDLCDDLAPVARQLAPRKKLPLSSRRPAAVGAGLQNMGNTCYENASLQCLTYTPPLANYMLSREHSQTCQRPKCCMLCTMQAHITWALHSPGHVIQPSQALAAGFHRGKQEDAHEFLMFTVDAMKKACLPGHKQVDHHSKDTTLIHQIFGGCWRSQIKCLHCHGISDTFDPYLDIALDIQAAQSVKQALEQLVKPEELNGENAYHCGLCLQRAPASKTLTLHTSAKVLILVLKRFSDVTGNKLAKNVQYPECLDMQPYMSQQNTGPLVYVLYAVLVHAGWSCHDGHYFSYVKAQEGQWYKMDDAKVTACSITSVLSQQAYVLFYIQKSEWERHSESVSRGREPRALGAEDTDRRATQGELKRDHPCLQAPELDERLVERATQESTLDHWKFPQEQNKTKPEFNVRKVEGTLPPNVLVIHQSKYKCGMKNHHPEQQSSLLNLSSTTRTDQESVNTGTLASLQGRTRRSKGKNKHSKRALLVCQ",binding result,BRD2,no binding
same,binding result,BRD3,no binding
same,binding result,BRD4 [1],binds
"Flag-USP49 (enzyme, UniProt Q70CQ1 1-688, looked up, not shown: Flag tag) MDRCKHVGRLRLAQDHSILNPQKWCCLECATTESVWACLKCSHVACGRYIEDHALKHFEETGHPLAMEVRDLYVFCYLCKDYVLNDNPEGDLKLLRSSLLAVRGQKQDTPVRRGRTLRSMASGEDVVLPQRAPQGQPQMLTALWYRRQRLLARTLRLWFEKSSRGQAKLEQRRQEEALERKKEEARRRRREVKRRLLEELASTPPRKSARLLLHTPRDAGPAASRPAALPTSRRVPAATLKLRRQPAMAPGVTGLRNLGNTCYMNSILQVLSHLQKFRECFLNLDPSKTEHLFPKATNGKTQLSGKPTNSSATELSLRNDRAEACEREGFCWNGRASISRSLELIQNKEPSSKHISLCRELHTLFRVMWSGKWALVSPFAMLHSVWSLIPAFRGYDQQDAQEFLCELLHKVQQELESEGTTRRILIPFSQRKLTKQVLKVVNTIFHGQLLSQVTCISCNYKSNTIEPFWDLSLEFPERYHCIEKGFVPLNQTECLLTEMLAKFTETEALEGRIYACDQCNSKRRKSNPKPLVLSEARKQLMIYRLPQVLRLHLKRFRWSGRNHREKIGVHVVFDQVLTMEPYCCRDMLSSLDKETFAYDLSAVVMHHGKGFGSGHYTAYCYNTEGGFWVHCNDSKLNVCSVEEVCKTQAYILFYTQRTVQGNARISETHLQAQVQSSNNDEGRPQTFS",binding result,BRD4 [2],no binding
"GST-DUB3 C-terminal fragment (other, UniProt Q6R6M4 399-530, looked up, also called C-terminal fragment of DUB3; not shown: glutathione S-transferase (GST) tag) TDRRATQGELKRDHPCLQAPELDERLVERATQESTLDHWKFPQEQNKTKPEFNVRKVEGTLPPNVLVIHQSKYKCGMKNHHPEQQSSLLNLSSTTRTDQESVNTGTLASLQGRTRRSKGKNKHSKRALLVCQ",binding result,BRD4 [3],no binding
"Flag-USP13 (enzyme, UniProt Q92995 1-863, looked up, not shown: Flag tag) MQRRGALFGMPGGSGGRKMAAGDIGELLVPHMPTIRVPRSGDRVYKNECAFSYDSPNSEGGLYVCMNTFLAFGREHVERHFRKTGQSVYMHLKRHVREKVRGASGGALPKRRNSKIFLDLDTDDDLNSDDYEYEDEAKLVIFPDHYEIALPNIEELPALVTIACDAVLSSKSPYRKQDPDTWENELPVSKYANNLTQLDNGVRIPPSGWKCARCDLRENLWLNLTDGSVLCGKWFFDSSGGNGHALEHYRDMGYPLAVKLGTITPDGADVYSFQEEEPVLDPHLAKHLAHFGIDMLHMHGTENGLQDNDIKLRVSEWEVIQESGTKLKPMYGPGYTGLKNLGNSCYLSSVMQAIFSIPEFQRAYVGNLPRIFDYSPLDPTQDFNTQMTKLGHGLLSGQYSKPPVKSELIEQVMKEEHKPQQNGISPRMFKAFVSKSHPEFSSNRQQDAQEFFLHLVNLVERNRIGSENPSDVFRFLVEERIQCCQTRKVRYTERVDYLMQLPVAMEAATNKDELIAYELTRREAEANRRPLPELVRAKIPFSACLQAFSEPENVDDFWSSALQAKSAGVKTSRFASFPEYLVVQIKKFTFGLDWVPKKFDVSIDMPDLLDINHLRARGLQPGEEELPDISPPIVIPDDSKDRLMNQLIDPSDIDESSVMQLAEMGFPLEACRKAVYFTGNMGAEVAFNWIIVHMEEPDFAEPLTMPGYGGAASAGASVFGASGLDNQPPEEIVAIITSMGFQRNQAIQALRATNNNLERALDWIFSHPEFEEDSDFVIEMENNANANIISEAKPEGPRVKDGSGTYELFAFISHMGTSTMSGHYICHIKKEGRWVIYNDHKVCASERPPKDLGYMYFYRRIPS",binding result,BRD4 [2],no binding
"Flag-USP15 (enzyme, UniProt Q9Y4E8 1-981, looked up, not shown: Flag tag) MAEGGAADLDTQRSDIATLLKTSLRKGDTWYLVDSRWFKQWKKYVGFDSWDKYQMGDQNVYPGPIDNSGLLKDGDAQSLKEHLIDELDYILLPTEGWNKLVSWYTLMEGQEPIARKVVEQGMFVKHCKVEVYLTELKLCENGNMNNVVTRRFSKADTIDTIEKEIRKIFSIPDEKETRLWNKYMSNTFEPLNKPDSTIQDAGLYQGQVLVIEQKNEDGTWPRGPSTPKSPGASNFSTLPKISPSSLSNNYNNMNNRNVKNSNYCLPSYTAYKNYDYSEPGRNNEQPGLCGLSNLGNTCFMNSAIQCLSNTPPLTEYFLNDKYQEELNFDNPLGMRGEIAKSYAELIKQMWSGKFSYVTPRAFKTQVGRFAPQFSGYQQQDCQELLAFLLDGLHEDLNRIRKKPYIQLKDADGRPDKVVAEEAWENHLKRNDSIIVDIFHGLFKSTLVCPECAKISVTFDPFCYLTLPLPMKKERTLEVYLVRMDPLTKPMQYKVVVPKIGNILDLCTALSALSGIPADKMIVTDIYNHRFHRIFAMDENLSSIMERDDIYVFEININRTEDTEHVIIPVCLREKFRHSSYTHHTGSSLFGQPFLMAVPRNNTEDKLYNLLLLRMCRYVKISTETEETEGSLHCCKDQNINGNGPNGIHEEGSPSEMETDEPDDESSQDQELPSENENSQSEDSVGGDNDSENGLCTEDTCKGQLTGHKKRLFTFQFNNLGNTDINYIKDDTRHIRFDDRQLRLDERSFLALDWDPDLKKRYFDENAAEDFEKHESVEYKPPKKPFVKLKDCIELFTTKEKLGAEDPWYCPNCKEHQQATKKLDLWSLPPVLVVHLKRFSYSRYMRDKLDTLVDFPINDLDMSEFLINPNAGPCRYNLIAVSNHYGGMGGGHYTAFAKNKDDGKWYYFDDSSVSTASEDQIVSKAAYVLFYQRQDTFSGTGFFPLDRETKGASAATGIPLESDEDSNDNDNDIENENCMHTN",binding result,BRD4 [2],no binding
"Flag-USP28 (enzyme, UniProt Q96RU2 1-1077, looked up, not shown: Flag tag) MTAELQQDDAAGAADGHGSSCQMLLNQLREITGIQDPSFLHEALKASNGDITQAVSLLTDERVKEPSQDTVATEPSEVEGSAANKEVLAKVIDLTHDNKDDLQAAIALSLLESPKIQADGRDLNRMHEATSAETKRSKRKRCEVWGENPNPNDWRRVDGWPVGLKNVGNTCWFSAVIQSLFQLPEFRRLVLSYSLPQNVLENCRSHTEKRNIMFMQELQYLFALMMGSNRKFVDPSAALDLLKGAFRSSEEQQQDVSEFTHKLLDWLEDAFQLAVNVNSPRNKSENPMVQLFYGTFLTEGVREGKPFCNNETFGQYPLQVNGYRNLDECLEGAMVEGDVELLPSDHSVKYGQERWFTKLPPVLTFELSRFEFNQSLGQPEKIHNKLEFPQIIYMDRYMYRSKELIRNKRECIRKLKEEIKILQQKLERYVKYGSGPARFPLPDMLKYVIEFASTKPASESCPPESDTHMTLPLSSVHCSVSDQTSKESTSTESSSQDVESTFSSPEDSLPKSKPLTSSRSSMEMPSQPAPRTVTDEEINFVKTCLQRWRSEIEQDIQDLKTCIASTTQTIEQMYCDPLLRQVPYRLHAVLVHEGQANAGHYWAYIYNQPRQSWLKYNDISVTESSWEEVERDSYGGLRNVSAYCLMYINDKLPYFNAEAAPTESDQMSEVEALSVELKHYIQEDNWRFEQEVEEWEEEQSCKIPQMESSTNSSSQDYSTSQEPSVASSHGVRCLSSEHAVIVKEQTAQAIANTARAYEKSGVEAALSEVMLSPAMQGVILAIAKARQTFDRDGSEAGLIKAFHEEYSRLYQLAKETPTSHSDPRLQHVLVYFFQNEAPKRVVERTLLEQFADKNLSYDERSISIMKVAQAKLKEIGPDDMNMEEYKKWHEDYSLFRKVSVYLLTGLELYQKGKYQEALSYLVYAYQSNAALLMKGPRRGVKESVIALYRRKCLLELNAKAASLFETNDDHSVTEGINVMNELIIPCIHLIINNDISKDDLDAIEVMRNHWCSYLGQDIAENLQLCLGEFLPRLLDPSAEIIVLKEPPTIRPNSPYDLCSRFAAVMESIQGVSTVTVK",binding result,BRD4 [2],no binding
